Assay results taken from patent publication US20050089926A1, “Ligand sensing fluorescent acetylcholinesterase for detection of organophosphate activity” (priority 2002, published 2005).
“And” between values parts separate entries of the source, which are not always exact repeats. Equal entries are not always repeated. Where two headings read alike, the source gives them in different places.

What was measured:
[1] = test system: wild type and mutant mouse AChEs; assay: Acetylthiocholine hydrolysis kinetics (Ellman method); format: biochemical; conditions: means ± S.D.
Protocol: Assay of Catalytic Activity—The spectrophotometric method of Ellman was used (25), and kinetic constants for acetylthiocholine hydrolysis were determined by fitting the observed rates as described (26). Titration of active sites with known concentrations of the irreversible phosphorylating agent, MEPQ, was accomplished by the method of Levy and Ashani (27).

mouse AChE = assay: TFK+ inhibition, association rate from residual enzyme activity; format: biochemical; conditions: for TFK+ kon: unlabeled enzyme, from measurements of enzyme activity
Protocol: Trifluoroacetophenone Inhibition—Picomolar amounts of enzyme in 0.01% bovine serum albumin in 0.1 M sodium phosphate buffer, pH 7.0, were reacted with TFK^+ in the absence of substrate. Inhibition was monitored by measuring residual enzyme activity by removal of aliquots during the course of the reaction. Bimolecular rate constants of inhibition were determined by nonlinear fit of the data (28). ΔF=ΔFmax(Et+It+Kd−/(Et+It+Kd)^2−4 EtIt∫^0.5)(2Et)^−1 (Eq. 1)
(§1) TFK^+ binding to cysteine-substituted enzymes, both free and modified with acrylodan, was also examined (Table II). For E81C and E84C, the association rate constants (kon) for TFK^+ were obtained from measurements of enzyme activity. […] For acrylodan-labeled mutants, kon was measured from the time-dependent decrease of fluorescence signal (FIG. 3).

[2] = biological target: T1, acrylodan-labeled E81C and E84C (Mus musculus, UniProt P21836, E115C); format: binding; conditions: acrylodan-conjugated E84C
T1 construct: made in house; host or cells: HEK293
Protocol: as §1

E81C and E84C AChEs [3] = assay: Edrophonium binding, stopped-flow tryptophan fluorescence quenching (koff/kon); set-up: species or system mouse; conditions: unlabeled mutant
Protocol: (§2) Association and dissociation rate constants of edrophonium and […] with E81C and E84C AChEs were determined from changes in the tryptophan fluorescence using a stopped-flow spectrophotometer as described previously (29). Time-dependent decreases in tryptophan fluorescence were observed upon excitation at 276 nm by means of a 305 nm emission cut-off filter.

E81C and E84C AChEs [4] = assay: BW284c51 binding, stopped-flow tryptophan fluorescence quenching (koff/kon); set-up: species or system mouse; conditions: unlabeled mutant
Protocol: as §2

[5] = biological target: T2, acrylodan-labeled mouse AChE mutants (Mus musculus, UniProt P21836, E115C); conditions: edrophonium, tacrine or huperzine bound
T2 construct: made in house; host or cells: HEK293

[6] = test system: wild type and mutant mouse AChEs; conditions: data from Boyd et al. 2000, cited from earlier work; for Km / kcat: acetylthiocholine hydrolysis; for b: relative catalytic turnover of the ternary complex; for KSS: substrate inhibition or activation constant

B1: E84C (protein, UniProt P21836 32-614, looked up, variant E84C)
Acetylcholinesterase: EGREDPQLLVRVRGGQLRGIRLKAPGGPVSAFLGIPFAEPPVGSRRFMPPEPKRPWSGVLDATTFQNVCYQYVDTLYPGFEGTCMWNPNRELSEDCLYLNVWTPYPRPASPTPVLIWIYGGGFYSGAASLDVYDGRFLAQVEGAVLVSMNYRVGTFGFLALPGSREAPGNVGLLDQRLALQWVQENIAAFGGDPMSVTLFGESAGAASVGMHILSLPSRSLFHRAVLQSGTPNGPWATVSAGEARRRATLLARLVGCPPGGAGGNDTELIACLRTRPAQDLVDHEWHVLPQESIFRFSFVPVVDGDFLSDTPEALINTGDFQDLQVLVGVVKDEGSYFLVYGVPGFSKDNESLISRAQFLAGVRIGVPQASDLAAEAVVLHYTDWLHPEDPTHLRDAMSAVVGDHNVVCPVAQLAGRLAAQGARVYAYIFEHRASTLTWPLWMGVPHGYEIEFIFGLPLDPSLNYTTEERIFAQRLMKYWTNFARTGDPNDPRDSKSPQWPPYTTAAQQYVSLNLKPLEVRRGLRAQTCAFWNRFLPKLLSATDTLDEAERQWKAEFHRWSSYMVHWKNQFDHYSKQERCSDL
Q: Which Km ([1]; acetylthiocholine hydrolysis) does the source give for B1 here?
A: 190 ± 9 µM

Q: And the kcat ([1]; acetylthiocholine hydrolysis)?
A: 1.9 ± 0.4 10^5/min

Q: What about the b ([1]; relative catalytic turnover of the ternary complex) of the same molecule?
A: 0.2 ± 0.05

Q: And the KSS ([1]; substrate inhibition or activation constant)?
A: 26 ± 2 mM

Q: And the “TFK+ kon” value (mouse AChE)?
A: 93 10^9M^−1min^−1

Q: What about the “TFK+ kon ratio to wild type (head is formula MATH:1)” value (mouse AChE; unlabeled mutant) of the same molecule?
A: 1.6

Q: What about the “reduction of kon of TFK+ by acrylodan conjugation compared with unconjugated E84C” value [2] of the same molecule?
A: 7 fold

Q: And the “Edrophonium Kd ratio to wild type (head is formula MATH:2)” value (E81C and E84C AChEs [3])?
A: 2 and 2.2

Q: What about the “BW284c51 Kd ratio to wild type (head is formula MATH:3)” value (E81C and E84C AChEs [4]) of the same molecule?
A: 18

Q: And the “bathochromic shift upon inhibitor binding” value [5]?
A: 33 nm

B2: Wild Type (protein, UniProt P21836 32-614, looked up)
Acetylcholinesterase: EGREDPQLLVRVRGGQLRGIRLKAPGGPVSAFLGIPFAEPPVGSRRFMPPEPKRPWSGVLDATTFQNVCYQYVDTLYPGFEGTEMWNPNRELSEDCLYLNVWTPYPRPASPTPVLIWIYGGGFYSGAASLDVYDGRFLAQVEGAVLVSMNYRVGTFGFLALPGSREAPGNVGLLDQRLALQWVQENIAAFGGDPMSVTLFGESAGAASVGMHILSLPSRSLFHRAVLQSGTPNGPWATVSAGEARRRATLLARLVGCPPGGAGGNDTELIACLRTRPAQDLVDHEWHVLPQESIFRFSFVPVVDGDFLSDTPEALINTGDFQDLQVLVGVVKDEGSYFLVYGVPGFSKDNESLISRAQFLAGVRIGVPQASDLAAEAVVLHYTDWLHPEDPTHLRDAMSAVVGDHNVVCPVAQLAGRLAAQGARVYAYIFEHRASTLTWPLWMGVPHGYEIEFIFGLPLDPSLNYTTEERIFAQRLMKYWTNFARTGDPNDPRDSKSPQWPPYTTAAQQYVSLNLKPLEVRRGLRAQTCAFWNRFLPKLLSATDTLDEAERQWKAEFHRWSSYMVHWKNQFDHYSKQERCSDL
Q: Which results are given for B2?
A: TFK+ kon (mouse AChE): 150 10^9M^−1min^−1; Km [6]: 54 ± 16 µM; kcat [6]: 1.6 ± 0.4 10^5/min; b [6]: 0.2 ± 0.07; KSS [6]: 14 ± 5 mM

B3: H287C (protein, UniProt P21836 32-614, looked up, variant H287C)
Acetylcholinesterase: EGREDPQLLVRVRGGQLRGIRLKAPGGPVSAFLGIPFAEPPVGSRRFMPPEPKRPWSGVLDATTFQNVCYQYVDTLYPGFEGTEMWNPNRELSEDCLYLNVWTPYPRPASPTPVLIWIYGGGFYSGAASLDVYDGRFLAQVEGAVLVSMNYRVGTFGFLALPGSREAPGNVGLLDQRLALQWVQENIAAFGGDPMSVTLFGESAGAASVGMHILSLPSRSLFHRAVLQSGTPNGPWATVSAGEARRRATLLARLVGCPPGGAGGNDTELIACLRTRPAQDLVDHEWCVLPQESIFRFSFVPVVDGDFLSDTPEALINTGDFQDLQVLVGVVKDEGSYFLVYGVPGFSKDNESLISRAQFLAGVRIGVPQASDLAAEAVVLHYTDWLHPEDPTHLRDAMSAVVGDHNVVCPVAQLAGRLAAQGARVYAYIFEHRASTLTWPLWMGVPHGYEIEFIFGLPLDPSLNYTTEERIFAQRLMKYWTNFARTGDPNDPRDSKSPQWPPYTTAAQQYVSLNLKPLEVRRGLRAQTCAFWNRFLPKLLSATDTLDEAERQWKAEFHRWSSYMVHWKNQFDHYSKQERCSDL
Q: With B3 as the molecule, how does the Km [6] read?
A: 58 ± 7 µM

Q: What about the kcat [6] of the same molecule?
A: 1.8 ± 0.2 10^5/min

Q: What about the b [6] of the same molecule?
A: 0.2 ± 0.06

Q: What about the KSS [6] of the same molecule?
A: 12 ± 6 mM

B4: A262C (protein, UniProt P21836 32-614, looked up, variant A262C)
Acetylcholinesterase: EGREDPQLLVRVRGGQLRGIRLKAPGGPVSAFLGIPFAEPPVGSRRFMPPEPKRPWSGVLDATTFQNVCYQYVDTLYPGFEGTEMWNPNRELSEDCLYLNVWTPYPRPASPTPVLIWIYGGGFYSGAASLDVYDGRFLAQVEGAVLVSMNYRVGTFGFLALPGSREAPGNVGLLDQRLALQWVQENIAAFGGDPMSVTLFGESAGAASVGMHILSLPSRSLFHRAVLQSGTPNGPWATVSAGEARRRATLLARLVGCPPGGCGGNDTELIACLRTRPAQDLVDHEWHVLPQESIFRFSFVPVVDGDFLSDTPEALINTGDFQDLQVLVGVVKDEGSYFLVYGVPGFSKDNESLISRAQFLAGVRIGVPQASDLAAEAVVLHYTDWLHPEDPTHLRDAMSAVVGDHNVVCPVAQLAGRLAAQGARVYAYIFEHRASTLTWPLWMGVPHGYEIEFIFGLPLDPSLNYTTEERIFAQRLMKYWTNFARTGDPNDPRDSKSPQWPPYTTAAQQYVSLNLKPLEVRRGLRAQTCAFWNRFLPKLLSATDTLDEAERQWKAEFHRWSSYMVHWKNQFDHYSKQERCSDL
Q: Which Km [6] does the source give for B4 here?
A: 59 ± 4 µM

Q: What about the kcat [6] of the same molecule?
A: 1.6 ± 0.1 10^5/min

Q: What about the b [6] of the same molecule?
A: 0.2 ± 0.04

Q: What about the KSS [6] of the same molecule?
A: 11 ± 3 mM
